Results published in patent EP3470428A1 (Numab Innovation AG, dated 2019).

B1: PRO1057: 38_02_A04 sc01 scDb-i/33-03-G02 sc01 scDb-o/mxr HSA (23-13-A01-sc03, sk17sh4) (other)
chain: DIQMTQSPSSLSASVGDRVTITCQASQSINDYLAWYQQKPGKAPKLLIYKASTLASGVPSRFSGSGSGTDFTLTISSLQPEDFATYYCQQGYIITDIDNVFGTGTKVTVLGGGGGSQVQLQESGPGLVKPSETLSLTCKVSGFSFSNSYWICWIRQPPGKGLEWIGCTFVGSSDSTYYANWAKGRVTISVDSSKNQFSLKLSSVTAADTAVYYCARHPSDAVYGYANNLWGQGTLVTVSSGGGGSGGGGSGGGGSGGGGSIQMTQSPSSLSASVGDRVTITCQASQSINNVLAWYQQKPGKAPKLLIYRASTLASGVPSRFSGSGSGTDFTLTISSLQPEDFATYYCQSSYGNYGDFGTGTKVTVLGGGGGSQVQLQESGPGLVKPSETLSLTCKVSGFSFSSGYDMCWIRQPPGKGLEWIGCVVAGSVDITYYASWAKGRVTISVDSSKNQFSLKLSSVTAADTAVYYCARKDAYSDAFNLWGQGTLVTVSSGGGGSGGGGSVVMTQSPSSLSASVGDRVTITCQASQIISSRSAWYQQKPGQPPKLLIYQASKLASGVPSRFSGSGSGTDFTLTISSLQPEDFATYYCQCTYIDSNFGAFGGGTKLTVLGGGGGSGGGGSGGGGSGGGGSEVQLVESGGGLVQPGGSLRLSCAASGFSFSSSYWICWVRQAPGKGLEWVGCVFTGDGTTYYASWAKGRFTISRDNSKNTVYLQMNSLRAEDTATYFCARPVSVYYYGMDLWGQGTLVTVSS
notes: Trispecific scTriabody (scDb-scFv)
B2: PRO1126: 38-02-A04 sc01 scDb-i/33_03_G02 sc03 Full scDb-o (bispecific antibody)
chain: DFQLTQSPSSLSASVGDRVTITCQASQSINDYLAWYQQKPGKSPKLLIYKASTLASGVPSRFSGSGSGTDFTLTISSLQPEDFATYYCQQGYIITDIDNVFGTGTKVTVLGGGGGSQVQLQESGPGLVKPSETLSLTCKVSGFSFSNSYWICWIRQPPGKGLEWIGCTFVGSSDSTYYANWAKGRVTISVDSSKNQFSLKLSSVTAADTAVYYCARHPSDAVYGYANNLWGQGTLVTVSSGGGGSGGGGSGGGGSGGGGSIQMTQSPSSLSASVGDRVTITCQASQSINNVLAWYQQKPGKAPKLLIYRASTLASGVPSRFSGSGSGTDFTLTISSLQPEDFATYYCQSSYGNYGDFGTGTKVTVLGGGGGSQSQLQESGPGLVKPSETLSLTCKASGFSFSSGYDMCWVRQPPGKGLEWIACVVAGSVDITYYASWAKGRVTISKDSSKNQVSLKLSSVTAADTAVYFCARKDAYSDAFNLWGQGTLVTVSS
notes: scDb, STR graft of the PD-L1 domain

Experiments:
[1] = molecular target: T1, human CD137 expressed on cells (human, UniProt Q07011 24-255); assay: cell-based or functional assay
[2] = molecular target: T2, biotinylated human PD-L1 (human, UniProt Q9NZQ7 19-238, limits assumed, biotinylated); assay: PD-L1/PD-1 competition ELISA with human serum albumin
T2 construct: also called biotinylated PD-L1

[3] = molecular target: T3, human serum albumin (human, UniProt P02768 25-609); assay: SPR (Biacore T200); SA amine-coupled; pH 5.5
T3 construct: Amine-coupled to a CM5 chip; assay at pH 5.5; also called HSA; human SA

[4] = molecular target: T2, biotinylated human PD-L1; assay: competition ELISA; coated human PD-1 as competitor; biotinylated human PD-L1 pre-incubated with inhibitor
[5] = molecular target: T1, human CD137 expressed on cells; assay: cell-based or functional assay; remark: listed apart in the source
[6] = molecular target: T1, human CD137 expressed on cells; assay: cell-based or functional assay; remark: listed apart in the source
[7] = molecular target: T2, biotinylated human PD-L1; assay: competition ELISA; coated human B7.1 as competitor; biotinylated PD-L1 pre-incubated with inhibitor
[8] = molecular target: T1, human CD137 expressed on cells; assay: cell-based or functional assay; remark: listed apart in the source
[9] = molecular target: T4, human PD-L1 expressed on cells (human, UniProt Q9NZQ7 19-290); assay: cell-based or functional assay
[10] = molecular target: T1, human CD137 expressed on cells; assay: cell-based or functional assay; remark: listed apart in the source
[11] = molecular target: T1, human CD137 expressed on cells; assay: cell-based or functional assay; remark: listed apart in the source
[12] = molecular target: T4, human PD-L1 expressed on cells; assay: cell-based or functional assay; remark: listed apart in the source
[13] = molecular target: T1, human CD137 expressed on cells; assay: cell-based or functional assay; remark: listed apart in the source

max. activation (%), NF-kB reporter gene, CHO-PD-L1; HSA: yes, 24h [1] [%]	fold change of IC50 in presence of human serum albumin [2] [fold]	binding result [3]	IC50 [4] [µg/mL]	EC50 in ng/ml, CD137 activation, NFkB-luciferase Jurkat reporter assay, PD-L1 expressing CHO cells, 6h, + HSA [5] [ng/mL]	EC50 in ng/ml, CD137 activation, NFkB-luciferase Jurkat reporter assay, PD-L1 expressing CHO cells, 24h, + HSA [6] [ng/mL]	IC50 [7] [µg/mL]	EC50 in ng/ml, CD137 activation, NFkB-luciferase Jurkat reporter assay, HCC827 with IFNy stimulation, 24h, +HSA [8] [ng/mL]	EC50 in ng/ml, CD137 activation, NFkB-luciferase Jurkat reporter assay, HCC827 without IFNy stimulation, 24h, +HSA [8] [ng/mL]	IC50 (ng/ml), neutralization of PD-L1/PD-1 interaction, NFAT-luciferase reporter gene assay, with HSA [9] [ng/mL]	EC50 in ng/ml, CD137 activation, NFkB-luciferase Jurkat reporter assay, HCC827 cells without IFNg [10] [ng/mL]	max. activation (%), NF-kB reporter gene, CHO-PD-L1; HSA: no [1] [%]	max. activation (%), NF-kB reporter gene, HCC827 +IFNg; HSA: no [1] [%]	max. activation (%), NF-kB reporter gene, HCC827 -IFNg; HSA: no [1] [%]	EC50 in ng/ml, CD137 activation, NFkB-luciferase Jurkat reporter assay, HCC827 cells stimulated with IFNg [11] [ng/mL]	IC50, neutralization of PD-L1/PD-1 interaction, NFAT-luciferase reporter gene assay [12] [µg/mL]	EC50 in ng/ml, CD137 activation, NFkB-luciferase Jurkat reporter assay, CHO-PD-L1 cells [13] [ng/mL]	Binder
663	~2	binds	0.00861	112	792	0.0163	115	76.6	665	–	–	–	–	–	–	–	B1
–	–	–	0.00128	–	–	–	–	–	–	6.97	242	208	135	5.48	0.0481	6	B2
